Experimental data reported in US20200354425A1 (DONG-A ST CO., LTD., published 2020).
Positions count from the first letter of the chain named. Like-named read-outs stand apart in the source and are kept apart here. Blank lines part the entries; values can stand above or below the molecule they belong to. *1 amine or outer side, *2 acyl side, *3 side chain or, on linkers, in order; H or OH if unused. Bridges are numbered along the chain shown (N, C = ends). Where no end group is shown, it is not given here. Side-chain parts run from the residue outwards. [ ]: non-standard residue; d: D form. The star is where a group is joined. γGlu = O=C(O)[C@H](CCC(=O)[*:2])N[*:1]; Stearoyl = CCCCCCCCCCCCCCCCCC(=O)*; AEEA = NCCOCCOCC(=O)O; Aib = CC(C)(N)C(=O)O

How the values were obtained:
Human glucagon receptor [1] = biological target: T1, Human glucagon receptor (human, UniProt P47871)
Human GLP-1 receptor [2] = biological target: T2, Human GLP-1 receptor (human, UniProt P43220)
Human glucagon receptor [3] = biological target: T1, Human glucagon receptor; assay: cell-based or functional assay
Human GLP-1 receptor [4] = biological target: T2, Human GLP-1 receptor; assay: cell-based or functional assay

B1: Compound 29 (peptide)
peptide: HXQGTFTSDXSKYLDERRAEDFVQWLMNTK
modifications: Aib at position 2; Z at position 10 = Lys([(2-(2-(2-aminoethoxy)ethoxy)acetoyl)2]-[gamma glutamicacid]-[octadecanoyl]); a ring formed between E and E (positions 16 and 20) via 1,4-phenylenediamino cross-link
EC50(pM), CRE-driven luciferase activity (Human glucagon receptor [3]): < 10 pM
EC50(pM), CRE-driven luciferase activity (Human GLP-1 receptor [4]): < 10 pM

B3: Compound 37 (peptide)
peptide: H-H[Aib]QGTFTSDK([AEEA-AEEA-γGlu-Stearoyl])SKYLDDRRAKDFVQWLMNTK-OH
modifications: bridge 16-20; not fully specified (bridges); printed as H-HAibQGTFTSDZSKYLDDRRAKDFVQWLMNTK-OH
EC50(pM), CRE-driven luciferase activity (Human glucagon receptor [3]): < 10 pM
EC50(pM), CRE-driven luciferase activity (Human GLP-1 receptor [4]): < 10 pM

B5: Compound 6 (peptide)
peptide: B1 peptide with E16X, E20Q
modifications: Aib at positions 2 and 16; Z at position 10 = Lys([(2-(2-(2-aminoethoxy)ethoxy)acetoyl)2]-[gamma glutamicacid]-[octadecanoyl]); C-terminal amide (-NH2)
EC50(pM), CRE-driven luciferase activity (Human glucagon receptor [3]): < 10 pM
EC50(pM), CRE-driven luciferase activity (Human GLP-1 receptor [4]): < 10 pM

Molecule: H[Aib]QGTFTSDK([AEEA-AEEA-γGlu-Stearoyl])SKYLDSRRAQDFVQWLMNTK [Compound 2]
EC50(pM), CRE-driven luciferase activity (Human glucagon receptor [3]): < 10 pM
EC50(pM), CRE-driven luciferase activity (Human GLP-1 receptor [4]): < 10 pM

Molecule: H[Aib]QGTFTSDK([AEEA-AEEA-γGlu-Stearoyl])SKYLDKRRAEDFVQWLMNTK (lactam 16-20) [Compound 21]
EC50(pM), CRE-driven luciferase activity (Human glucagon receptor [3]): < 10 pM
EC50(pM), CRE-driven luciferase activity (Human GLP-1 receptor [4]): < 10 pM

B7: Compound 43 (peptide)
peptide: B1 peptide with E16X, E20Q
modifications: Aib at positions 2 and 16; Z at position 10 = Lys([(2-(2-(2-aminoethoxy)ethoxy)acetoyl)2]-[gammaglutamicacid]-[17-carboxyheptadecanoyl])
EC50(pM), CRE-driven luciferase activity (Human glucagon receptor [3]): > 1000 pM
EC50(pM), CRE-driven luciferase activity (Human GLP-1 receptor [4]): > 1000 pM

Molecule: H[Aib]QGTFTSDYSKYLD[Aib]RRAK([AEEA-AEEA-γGlu-Stearoyl])DFVQWLMNTK [Compound 16]
EC50(pM), CRE-driven luciferase activity (Human glucagon receptor [3]): < 10 pM
EC50(pM), CRE-driven luciferase activity (Human GLP-1 receptor [4]): < 10 pM

B8: Compound 38 (peptide)
peptide: H-H[Aib]QGTFTSDK([AEEA-AEEA-γGlu-Stearoyl])SKYLDDRRAKDFVQWLMNTK-OH
modifications: bridge 16-20; not fully specified (bridges); printed as H-HAibQGTFTSDZSKYLDDRRAKDFVQWLMNTK-OH
EC50(pM), CRE-driven luciferase activity (Human glucagon receptor [3]): < 10 pM
EC50(pM), CRE-driven luciferase activity (Human GLP-1 receptor [4]): < 10 pM

The remaining lines, values ahead:

EC50(pM), CRE-driven luciferase activity (Human glucagon receptor [1]): 10 to 100 pM
EC50(pM), CRE-driven luciferase activity (Human GLP-1 receptor [2]): < 10 pM
Molecule: MEDI0382 (peptide)

EC50(pM), CRE-driven luciferase activity (Human glucagon receptor [3]): < 10 pM
EC50(pM), CRE-driven luciferase activity (Human GLP-1 receptor [4]): < 10 pM
B2: Compound 20 (peptide)
peptide: B1 peptide with E20K
modifications: Aib at position 2; Z at position 10 = Lys([(2-(2-(2-aminoethoxy)ethoxy)acetoyl)3]-[gamma glutamicacid]-[octadecanoyl]); lactam ring formed between E and K (positions 16 and 20)

EC50(pM), CRE-driven luciferase activity (Human glucagon receptor [3]): > 1000 pM
EC50(pM), CRE-driven luciferase activity (Human GLP-1 receptor [4]): > 1000 pM
Molecule: H[Aib]QGTFTSDKSKYLD[Aib]RRAQDFVQWLMNTK [Compound 39]

EC50(pM), CRE-driven luciferase activity (Human glucagon receptor [3]): < 10 pM
EC50(pM), CRE-driven luciferase activity (Human GLP-1 receptor [4]): < 10 pM
Molecule: H[Aib]QGTFTSDK([AEEA-AEEA-γGlu-Stearoyl])SKYLDKRRADDFVQWLMNTK (lactam 16-20) [Compound 27]

EC50(pM), CRE-driven luciferase activity (Human GLP-1 receptor [4]): < 10 pM
B4: Compound 47 (peptide)
peptide: H-H[Aib]QGTFTSDYSKYLDEKRAKEFVQWLMNTKC-OH
modifications: lactam 16-20
SMILES: CSCC[C@H](NC(=O)[C@H](CC(C)C)NC(=O)[C@H](Cc1c[nH]c2ccccc12)NC(=O)[C@H](CCC(N)=O)NC(=O)[C@@H](NC(=O)[C@H](Cc1ccccc1)NC(=O)[C@H](CCC(=O)O)NC(=O)[C@@H]1CCCCNC(=O)CC[C@H](NC(=O)[C@H](CC(=O)O)NC(=O)[C@H](CC(C)C)NC(=O)[C@H](Cc2ccc(O)cc2)NC(=O)[C@H](CCCCN)NC(=O)[C@H](CO)NC(=O)[C@H](Cc2ccc(O)cc2)NC(=O)[C@H](CC(=O)O)NC(=O)[C@H](CO)NC(=O)[C@@H](NC(=O)[C@H](Cc2ccccc2)NC(=O)[C@@H](NC(=O)CNC(=O)[C@H](CCC(N)=O)NC(=O)C(C)(C)NC(=O)[C@@H](N)Cc2c[nH]cn2)[C@@H](C)O)[C@@H](C)O)C(=O)N[C@@H](CCCCN)C(=O)N[C@@H](CCCNC(=N)N)C(=O)N[C@@H](C)C(=O)N1)C(C)C)C(=O)N[C@@H](CC(N)=O)C(=O)N[C@H](C(=O)N[C@@H](CCCCN)C(=O)N[C@@H](CS)C(=O)O)[C@@H](C)O

EC50(pM), CRE-driven luciferase activity (Human glucagon receptor [3]): < 10 pM
EC50(pM), CRE-driven luciferase activity (Human GLP-1 receptor [4]): < 10 pM
Molecule: H[Aib]QGTFTSDK([AEEA-AEEA-γGlu-Stearoyl])SKYLDCRRACDFVQWLMNTK (linker 16-20 via 1,3‑phenyhenedimethyl) [Compound 22]

EC50(pM), CRE-driven luciferase activity (Human glucagon receptor [3]): < 10 pM
EC50(pM), CRE-driven luciferase activity (Human GLP-1 receptor [4]): < 10 pM
B6: Compound 3 (peptide)
peptide: B1 peptide with E16X, E20Q
modifications: Aib at positions 2 and 16; Z at position 10 = Lys([(2-(2-(2-aminoethoxy)ethoxy)acetoyl)2]-[gamma glutamicacid]-[octadecanoyl])

EC50(pM), CRE-driven luciferase activity (Human glucagon receptor [3]): < 10 pM
EC50(pM), CRE-driven luciferase activity (Human GLP-1 receptor [4]): < 10 pM
Molecule: H[Aib]QGTFTSDK([AEEA-AEEA-γGlu-Stearoyl])SKYLDKRRAEDFVQWLMNTK (linker 16-20 via 4‑carbonylpiperidin‑1‑yl) [Compound 32]

EC50(pM), CRE-driven luciferase activity (Human glucagon receptor [3]): > 1000 pM
Molecule: H[Aib]QGTFTSK([AEEA-AEEA-γGlu-Stearoyl])YSKYLD[Aib]RRAQDFVQWLMNTK [Compound 40]

EC50(pM), CRE-driven luciferase activity (Human glucagon receptor [3]): < 10 pM
EC50(pM), CRE-driven luciferase activity (Human GLP-1 receptor [4]): < 10 pM
Molecule: H[Aib]QGTFTSDYSKYLDK([AEEA-AEEA-γGlu-Stearoyl])RRAQDFVQWLMNTK [Compound 15]
